In the test the target is SV2A (SV2). In words: SV-PD (synaptic vesicle pull-down) with blocking peptide, immunoblot densitometry. The note with it: pull down w/ C3WildF (m1), lower value = stronger block of SV capture by the peptide, parent: est. 39, read off a plot.

For the substance “… mimetic blocking peptide (CaV2.2 aa 2319-2328) H1A; Q2A”, the other: SV2 capture by C3WildF in presence of peptide (% SH3) (N = 8) amounted to 58 % SH3.

Regarding “… mimetic blocking peptide (CaV2.2 aa 2319-2328) H1G; Q2G; V6A; P7G; N8G; Y10A”, the other: SV2 capture by C3WildF in presence of peptide (% SH3) (N = 8) worked out at 74 % SH3.

Take “… mimetic blocking peptide (CaV2.2 aa 2319-2328) R4A; R5A”: the other: SV2 capture by C3WildF in presence of peptide (% SH3) (N = 3) was determined as 83 % SH3.

For “… mimetic blocking peptide (CaV2.2 aa 2319-2328) R4G; R5G; V6A; P7G; N8G; Y10A”, the other: SV2 capture by C3WildF in presence of peptide (% SH3) (N = 8) turned out to be 110 % SH3.

Regarding “… mimetic blocking peptide (CaV2.2 aa 2319-2328) V6A; P7A; N8A; G9A; Y10A”, the other: SV2 capture by C3WildF in presence of peptide (% SH3) (N = 5) is 44 % SH3.

“… mimetic blocking peptide (CaV2.2 aa 2319-2328) V6A; P7G; N8G; Y10A”: where the note is “N = 7”, the other: SV2 capture by C3WildF in presence of peptide (% SH3) amounted to 41 % SH3.

On to “… mimetic blocking peptide (CaV2.2 aa 2319-2328) V6A; Y10A”, for which the other: SV2 capture by C3WildF in presence of peptide (% SH3) (N = 8) was determined as 29 % SH3.

Regarding “… mimetic blocking peptide (CaV2.2 aa 2319-2328) V6G; P7A; N8A; G9A; Y10G”, for the setting “N = 6”, the other: SV2 capture by C3WildF in presence of peptide (% SH3) turned out to be 28 % SH3.

On to “… mimetic blocking peptide (CaV2.2 aa 2319-2328) V6G; Y10G”, for which the other: SV2 capture by C3WildF in presence of peptide (% SH3) (N = 6) is 44 % SH3.
